Experimental data published in publication doi:10.1101/2022.05.06.490861.

Tests used:
[1] = target: Arp2/3 complex (bovine (purified from bovine brain)) (UniProt P61157)
[2] = target: Arp2/3 complex (bovine (purified from bovine brain)) (UniProt P61157); remark: listed apart in the source

increase of the detachment rate of SPIN90-Arp2/3-nucleated filaments, 0-1 µM VCA [1] [fold]	acceleration of debranching of Arp2/3-mediated branches, 0-3 µM VCA [2] [fold]	Substance
< 16	–	GST-N-WASP-VCA (from UniProt O00401 392-505) (domain or fragment)
–	< 83	GST-WASH-VCA (from UniProt Q8VDD8 319-475) (domain or fragment)
